The record followed here is the supplement of paper PMC7877785.

± gives the uncertainty stated by the source.

The data set in a line: self-splicing fitness, log relative to wild type (ln ratio); higher = more splicing; Tetrahymena group I intron in knt gene, E. coli kanamycin selection, DiMSum; sequences stand for … in CUCUCU…GGAGGGAAAAGUUAUCAGGCAUGCACCUGGUAGCUAGUCUUUAAACCAAUAGAUUGCAUCGGUUUAAAAGGCAAGACCGUCAAAUUGCGGGAAAGGGGUCAACAGCCGUUCAGUACCAAGUCUCAGGGGAAACUUUGAGAUGGCCUUGCAAAGGGUAUGGUAAUAAGCUGACGGACAUGGUCCUAACCACGCAGCCAAGUCCUAAGUCAACAGAUCUUCUGUUGAUAUGGAUGCAGUUCACAGACUAAAUGUCGGUCGGGGAAGAUGUAUUCUUCUCAUAAGAUAUAGUCGGACCUCUCCUUAAUGGGAGCUAGCGGAUGAAGUGAUGCAACACUGGAGCCGCUGGGAACUAAUUUGUAUGCGAAAGUAUAUUGAUUAGUUUUGGAGUACUCGUGGUCG
Put shortly: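 The eight P1ex-region nucleotides of an intron in the knt kanamycin-resistance gene on pET-22b(+) were all randomised and the library put into E. coli BL21(DE3). Six replicate transformations were grown overnight at 37°C or 30°C on LB agar with or without 25 μg/mL kanamycin, together with 100 μg/mL carbenicillin, 50 μM IPTG and 0.2% rhamnose. Colonies were pooled and amplicon-sequenced on an Illumina HiSeq 2500. Fitness from DiMSum is the error-weighted combination of wild-type-normalised replicate fold changes, kanamycin over none.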

With CUGGAGCAAUAUUACGUUUU, for the setting “37 °C”, the “self-splicing fitness (ln)” value is -3.48 ± 0.42.
In the case of AUAUAGCAAUAUUACGCCUA, the “self-splicing fitness (ln)” value is -0.306 ± 0.17 (30 °C) and -0.0941 ± 0.12 (37 °C).
Consider GAGCAGCAAUAUUACGAAUG, for which the “self-splicing fitness (ln)” value by setting is: (30 °C) -3.81 ± 0.2; (37 °C) -1.94 ± 0.14.
On to ACUAAGCAAUAUUACGGGGG, for which the “self-splicing fitness (ln)” value is -3.59 ± 0.29 (30 °C) and -1.26 ± 0.17 (37 °C).
For the sequence GAAGAGCAAUAUUACGAGAG, the “self-splicing fitness (ln)” value runs as follows: (30 °C) -2.3 ± 0.12; (37 °C) -3.22 ± 0.27.
On the same counts, the results for GCUGAGCAAUAUUACGUAAU are -3.77 ± 0.24 and -1.29 ± 0.14.
With GCAUAGCAAUAUUACGACGG, the “self-splicing fitness (ln)” value (37 °C) was -1.01 ± 0.41.
Regarding GUGUAGCAAUAUUACGCCGU, the “self-splicing fitness (ln)” value is, setting by setting: (30 °C) -1.25 ± 0.17; (37 °C) -1.67 ± 0.36.
As for AUGCAGCAAUAUUACGCCGC, the “self-splicing fitness (ln)” value (30 °C) was -0.963 ± 0.28.
With UCUCAGCAAUAUUACGGUUA, the “self-splicing fitness (ln)” value (30 °C) was -0.801 ± 0.083 and the “self-splicing fitness (ln)” value (37 °C) is -0.239 ± 0.091.
CGGAAGCAAUAUUACGUUUA: the “self-splicing fitness (ln)” value runs as follows: (30 °C) -3.07 ± 0.24; (37 °C) -2.06 ± 0.17.
Take UUGCAGCAAUAUUACGGAAA: the “self-splicing fitness (ln)” value reads like this: (30 °C) -2.52 ± 0.14; (37 °C) -0.504 ± 0.1.
On to GGAUAGCAAUAUUACGACAG, for which the “self-splicing fitness (ln)” value by setting is: (30 °C) -4.21 ± 0.37; (37 °C) -2.36 ± 0.29.
Turning to UUGCAGCAAUAUUACGCCGG, the “self-splicing fitness (ln)” value is -0.957 ± 0.075 (30 °C) and -0.103 ± 0.12 (37 °C).
For AUUGAGCAAUAUUACGUUCU, the “self-splicing fitness (ln)” value is, setting by setting: (30 °C) -2.53 ± 0.14; (37 °C) -1.22 ± 0.15.
Regarding GGGUAGCAAUAUUACGCUAU, the “self-splicing fitness (ln)” value (30 °C) is -2.86 ± 0.22 and the “self-splicing fitness (ln)” value (37 °C) is -2.98 ± 0.31.
For AUUUAGCAAUAUUACGGUAU, the “self-splicing fitness (ln)” value (30 °C) was -1.51 ± 0.088 and the “self-splicing fitness (ln)” value (37 °C) was -0.753 ± 0.089.
CUUUAGCAAUAUUACGGCCG: the “self-splicing fitness (ln)” value is -0.432 ± 0.19 (30 °C) and -0.348 ± 0.29 (37 °C).
On to AAAAAGCAAUAUUACGGGGC, for which the “self-splicing fitness (ln)” value was -3.33 ± 0.16 (30 °C) and -2.43 ± 0.18 (37 °C).
Turning to AAAGAGCAAUAUUACGAGGA, the “self-splicing fitness (ln)” value by setting is: (30 °C) -2.26 ± 0.31; (37 °C) -2.6 ± 0.27.
Take CUCAAGCAAUAUUACGCAUG: the “self-splicing fitness (ln)” value is -4.22 ± 0.36 (30 °C) and -1.65 ± 0.18 (37 °C).
Take UCGUAGCAAUAUUACGGAAU: the “self-splicing fitness (ln)” value (37 °C) was -1.55 ± 0.27.
For the sequence GCUAAGCAAUAUUACGGCUC, the “self-splicing fitness (ln)” value reads like this: (30 °C) -0.551 ± 0.092; (37 °C) -0.942 ± 0.098.
ACGCAGCAAUAUUACGCAAU: the “self-splicing fitness (ln)” value was -1.76 ± 0.11 (30 °C) and -1.85 ± 0.15 (37 °C).
On the same counts, the results for UACAAGCAAUAUUACGUGUC are -3.91 ± 0.14 and -1.15 ± 0.094.
On to UGGCAGCAAUAUUACGUAUU, for which the “self-splicing fitness (ln)” value reads like this: (30 °C) -2.73 ± 0.12; (37 °C) -1.27 ± 0.11.
For GCCAAGCAAUAUUACGGGAG, the “self-splicing fitness (ln)” value runs as follows: (30 °C) -3.55 ± 0.19; (37 °C) -1.46 ± 0.13.
On to AUAAAGCAAUAUUACGUUCG, for which the “self-splicing fitness (ln)” value was -0.321 ± 0.085 (30 °C) and 0.17 ± 0.13 (37 °C).
On the same counts, the results for CUUGAGCAAUAUUACGUCAG are -1.6 ± 0.15 and -0.671 ± 0.17.
For CUGAAGCAAUAUUACGCGUA, the “self-splicing fitness (ln)” value reads like this: (30 °C) -4.36 ± 0.36; (37 °C) -1.98 ± 0.26.
AUAGAGCAAUAUUACGGGGU: the “self-splicing fitness (ln)” value is -3.46 ± 0.21 (30 °C) and -3.53 ± 0.23 (37 °C).
On the same counts, the results for GAUCAGCAAUAUUACGGCUA are -0.263 ± 0.099 and 0.0701 ± 0.11.
In the case of UAUGAGCAAUAUUACGUUGU, the “self-splicing fitness (ln)” value is -4.16 ± 0.24 (30 °C) and -2.27 ± 0.18 (37 °C).
For CCAGAGCAAUAUUACGGAGA, for the setting “30 °C”, the “self-splicing fitness (ln)” value is -2.38 ± 0.26.
As for GUUCAGCAAUAUUACGCGCG, the “self-splicing fitness (ln)” value is -0.45 ± 0.31 (30 °C) and -0.279 ± 0.23 (37 °C).
Take CGAGAGCAAUAUUACGACAG: the “self-splicing fitness (ln)” value by setting is: (30 °C) -2.82 ± 0.37; (37 °C) -1.15 ± 0.32.
For GAACAGCAAUAUUACGGUUA, the “self-splicing fitness (ln)” value reads like this: (30 °C) -0.16 ± 0.059; (37 °C) -0.275 ± 0.064.
On to AACGAGCAAUAUUACGACUA, for which the “self-splicing fitness (ln)” value by setting is: (30 °C) -1.81 ± 0.21; (37 °C) -0.213 ± 0.18.
For AAUGAGCAAUAUUACGACUG, in that order: -3.77 ± 0.28 and -0.811 ± 0.19.
As for GUGAAGCAAUAUUACGACAU, the “self-splicing fitness (ln)” value runs as follows: (30 °C) 0.0507 ± 0.012; (37 °C) 0.246 ± 0.032.
For AGGUAGCAAUAUUACGCUAC, the “self-splicing fitness (ln)” value was -3.78 ± 0.047 (30 °C) and -2.71 ± 0.059 (37 °C).
For CUGCAGCAAUAUUACGUGCG, in that order: -1.67 ± 0.093 and -1.26 ± 0.11.
On the same counts, the results for GGAAAGCAAUAUUACGCAUU are -2.5 ± 0.12 and -2.55 ± 0.25.
For the sequence CUUCAGCAAUAUUACGCGCU, the “self-splicing fitness (ln)” value (37 °C) was -1.96 ± 0.46.
As to AGACAGCAAUAUUACGCGUC, the “self-splicing fitness (ln)” value is -3.19 ± 0.29 (30 °C) and -2.08 ± 0.24 (37 °C).
AAUUAGCAAUAUUACGGAUG: the “self-splicing fitness (ln)” value runs as follows: (30 °C) -2.06 ± 0.12; (37 °C) -0.146 ± 0.15.
For CACUAGCAAUAUUACGCAGG, the “self-splicing fitness (ln)” value is -3.27 ± 0.12 (30 °C) and -1.26 ± 0.15 (37 °C).
Turning to UCUUAGCAAUAUUACGAGAA, the “self-splicing fitness (ln)” value (30 °C) is -2.37 ± 0.47.
Regarding CUAGAGCAAUAUUACGAGGG, the “self-splicing fitness (ln)” value is -2.12 ± 0.19 (30 °C) and -1.73 ± 0.33 (37 °C).
As to CAGAAGCAAUAUUACGGUGA, the “self-splicing fitness (ln)” value was -2.21 ± 0.096 (30 °C) and -1.13 ± 0.1 (37 °C).
On to UGCUAGCAAUAUUACGGUAG, for which the “self-splicing fitness (ln)” value is -1.49 ± 0.098 (30 °C) and -0.852 ± 0.13 (37 °C).
In the case of UUAAAGCAAUAUUACGAUAA, the “self-splicing fitness (ln)” value by setting is: (30 °C) 0.359 ± 0.084; (37 °C) 0.431 ± 0.1.
Turning to AAGAAGCAAUAUUACGGUGU, the “self-splicing fitness (ln)” value runs as follows: (30 °C) -1.99 ± 0.072; (37 °C) -1.65 ± 0.086.
As to CCAAAGCAAUAUUACGGUUG, the “self-splicing fitness (ln)” value by setting is: (30 °C) -1.18 ± 0.062; (37 °C) -0.628 ± 0.074.
For the sequence ACUAAGCAAUAUUACGACAA, the “self-splicing fitness (ln)” value reads like this: (30 °C) -1.63 ± 0.079; (37 °C) -0.52 ± 0.1.
As for UCCAAGCAAUAUUACGGCCC, for the setting “37 °C”, the “self-splicing fitness (ln)” value was -1.45 ± 0.32.
UUCAAGCAAUAUUACGGGGC: the “self-splicing fitness (ln)” value runs as follows: (30 °C) -3.6 ± 0.27; (37 °C) -2.8 ± 0.33.
As for GGUAAGCAAUAUUACGCGGU, the “self-splicing fitness (ln)” value reads like this: (30 °C) -3.85 ± 0.31; (37 °C) -0.403 ± 0.15.
As for CACGAGCAAUAUUACGUCGA, the “self-splicing fitness (ln)” value reads like this: (30 °C) -2.23 ± 0.35; (37 °C) -2.81 ± 0.26.
For UACCAGCAAUAUUACGGCGA, in that order: -0.21 ± 0.13 and 0.254 ± 0.19.
For UUUGAGCAAUAUUACGUGGU, in that order: -4.12 ± 0.33 and -2.74 ± 0.38.
Regarding UGGCAGCAAUAUUACGAUGC, the “self-splicing fitness (ln)” value was -3.93 ± 0.28 (30 °C) and -2.65 ± 0.41 (37 °C).
